{
  "source": "the supplement of paper PMC9112550",
  "about": "“Optimization of the antimicrobial peptide Bac7 by deep mutational scanning” (BMC Biology, 2022);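 further: peptides expressed intracellularly from a pBAD plasmid library in pooled LB shake-flask culture, induced with 0.3% L-arabinose, DNA abundance read by NGS, three biological replicates, DESeq2 with apeglm shrinkage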",
  "data": [
    {"system": "Escherichia coli TOP10", "experiment": "shrunken log2 fold change of peptide-encoding DNA abundance (4.5 h post-induction vs induction); higher = less antimicrobial activity (less host growth inhibition)", "conditions": "time post-induction: 4.5 h; library: site-saturation at positions 5, 18, 19, 20", "values": [
      {"sequence": "RRIRTRPPRLPRPRPRPHDWPRP", "shrunken log2 fold change": 0.213},
      {"sequence": "RRIRWRPPRLPRPRPRPDMNPRP", "shrunken log2 fold change": 0.143},
      {"sequence": "RRIRDRPPRLPRPRPRPRLFPRP", "shrunken log2 fold change": 0.653},
      {"sequence": "RRIRKRPPRLPRPRPRPSPCPRP", "shrunken log2 fold change": 0.13},
      {"sequence": "RRIRARPPRLPRPRPRPNMRPRP", "shrunken log2 fold change": 0.25},
      {"sequence": "RRIRGRPPRLPRPRPRPTYNPRP", "shrunken log2 fold change": 0.0375},
      {"sequence": "RRIRFRPPRLPRPRPRPRKPPRP", "shrunken log2 fold change": 0.428},
      {"sequence": "RRIRARPPRLPRPRPRPYVHPRP", "shrunken log2 fold change": -0.728},
      {"sequence": "RRIRVRPPRLPRPRPRPLKVPRP", "shrunken log2 fold change": -0.136},
      {"sequence": "RRIRERPPRLPRPRPRPNFLPRP", "shrunken log2 fold change": -0.114},
      {"sequence": "RRIRHRPPRLPRPRPRPTGWPRP", "shrunken log2 fold change": 0.841},
      {"sequence": "RRIRKRPPRLPRPRPRPQRYPRP", "shrunken log2 fold change": 0.132},
      {"sequence": "RRIRTRPPRLPRPRPRPDPAPRP", "shrunken log2 fold change": 0.0522},
      {"sequence": "RRIRWRPPRLPRPRPRPKQCPRP", "shrunken log2 fold change": 0.31},
      {"sequence": "RRIRNRPPRLPRPRPRPMHWPRP", "shrunken log2 fold change": 0.0477},
      {"sequence": "RRIRWRPPRLPRPRPRPNFHPRP", "shrunken log2 fold change": -0.0344},
      {"sequence": "RRIRIRPPRLPRPRPRPADQPRP", "shrunken log2 fold change": 0.0357},
      {"sequence": "RRIRNRPPRLPRPRPRPEQYPRP", "shrunken log2 fold change": -0.153},
      {"sequence": "RRIRRRPPRLPRPRPRPCLCPRP", "shrunken log2 fold change": -0.00345},
      {"sequence": "RRIRERPPRLPRPRPRPHTDPRP", "shrunken log2 fold change": -0.546},
      {"sequence": "RRIRLRPPRLPRPRPRPRTPPRP", "shrunken log2 fold change": 0.376},
      {"sequence": "RRIRSRPPRLPRPRPRPMREPRP", "shrunken log2 fold change": 0.142},
      {"sequence": "RRIRTRPPRLPRPRPRPTTPPRP", "shrunken log2 fold change": 0.245},
      {"sequence": "RRIRGRPPRLPRPRPRPCPRPRP", "shrunken log2 fold change": 0.23},
      {"sequence": "RRIRERPPRLPRPRPRPSGGPRP", "shrunken log2 fold change": -0.0233},
      {"sequence": "RRIRDRPPRLPRPRPRPGANPRP", "shrunken log2 fold change": 0.19},
      {"sequence": "RRIRRRPPRLPRPRPRPGEYPRP", "shrunken log2 fold change": 0.264},
      {"sequence": "RRIRQRPPRLPRPRPRPTEWPRP", "shrunken log2 fold change": 0.446},
      {"sequence": "RRIRTRPPRLPRPRPRPEWMPRP", "shrunken log2 fold change": -0.048},
      {"sequence": "RRIRRRPPRLPRPRPRPESLPRP", "shrunken log2 fold change": 0.0493},
      {"sequence": "RRIRARPPRLPRPRPRPGEYPRP", "shrunken log2 fold change": 0.0829},
      {"sequence": "RRIRGRPPRLPRPRPRPCFYPRP", "shrunken log2 fold change": 0.156},
      {"sequence": "RRIRPRPPRLPRPRPRPKWAPRP", "shrunken log2 fold change": 0.0222},
      {"sequence": "RRIRWRPPRLPRPRPRPNYWPRP", "shrunken log2 fold change": 1.21},
      {"sequence": "RRIRFRPPRLPRPRPRPLQYPRP", "shrunken log2 fold change": -0.242},
      {"sequence": "RRIRCRPPRLPRPRPRPSEWPRP", "shrunken log2 fold change": -0.214},
      {"sequence": "RRIRMRPPRLPRPRPRPRLGPRP", "shrunken log2 fold change": 0.644},
      {"sequence": "RRIRWRPPRLPRPRPRPDETPRP", "shrunken log2 fold change": 0.0169},
      {"sequence": "RRIRARPPRLPRPRPRPPKNPRP", "shrunken log2 fold change": 0.562},
      {"sequence": "RRIRMRPPRLPRPRPRPMRWPRP", "shrunken log2 fold change": 0.539},
      {"sequence": "RRIRKRPPRLPRPRPRPGKSPRP", "shrunken log2 fold change": 0.0157},
      {"sequence": "RRIRVRPPRLPRPRPRPFPQPRP", "shrunken log2 fold change": -0.312},
      {"sequence": "RRIRTRPPRLPRPRPRPAFAPRP", "shrunken log2 fold change": 0.282},
      {"sequence": "RRIRFRPPRLPRPRPRPDKEPRP", "shrunken log2 fold change": -0.0026},
      {"sequence": "RRIRRRPPRLPRPRPRPNPVPRP", "shrunken log2 fold change": 0.123},
      {"sequence": "RRIRERPPRLPRPRPRPHHIPRP", "shrunken log2 fold change": -0.0669},
      {"sequence": "RRIRSRPPRLPRPRPRPWSHPRP", "shrunken log2 fold change": -0.174},
      {"sequence": "RRIRQRPPRLPRPRPRPMCSPRP", "shrunken log2 fold change": -0.000965},
      {"sequence": "RRIRDRPPRLPRPRPRPVLYPRP", "shrunken log2 fold change": -0.166},
      {"sequence": "RRIRTRPPRLPRPRPRPAVPPRP", "shrunken log2 fold change": 0.0514},
      {"sequence": "RRIRRRPPRLPRPRPRPPWIPRP", "shrunken log2 fold change": 0.365},
      {"sequence": "RRIRKRPPRLPRPRPRPDRCPRP", "shrunken log2 fold change": 0.00281},
      {"sequence": "RRIRRRPPRLPRPRPRPAPVPRP", "shrunken log2 fold change": 1.06},
      {"sequence": "RRIRMRPPRLPRPRPRPNAWPRP", "shrunken log2 fold change": 0.774},
      {"sequence": "RRIRGRPPRLPRPRPRPWKGPRP", "shrunken log2 fold change": 0.22},
      {"sequence": "RRIRYRPPRLPRPRPRPVKTPRP", "shrunken log2 fold change": -0.0365},
      {"sequence": "RRIRNRPPRLPRPRPRPHHDPRP", "shrunken log2 fold change": -1.01},
      {"sequence": "RRIRIRPPRLPRPRPRPFRSPRP", "shrunken log2 fold change": -0.221},
      {"sequence": "RRIRPRPPRLPRPRPRPRNDPRP", "shrunken log2 fold change": -0.479},
      {"sequence": "RRIRDRPPRLPRPRPRPMPTPRP", "shrunken log2 fold change": -0.0113}
    ]}
  ]
}
